± gives the standard deviation of the averaged measurements or the uncertainty stated by the source.
Tests used:
[1] = duplex formation free energy ΔG50 (Van't Hoff fit of HRM Tm); higher = less stable duplex; settings: temperature for dG: 50 °C, NaCl: 500 mM (unadjusted)
How it was run: (§1)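 Four replicate samples of each duplex, annealed 1:1 from phosphodiester or phosphorothioate strands (the latter mixed Rp/Sp), were melted at 1–20 μM in 1× NNE buffer (500 mM NaCl, pH 7.0) with 1× EvaGreen, heating from 37 to 97°C at 0.1°C/s on a LightCycler96. Tm is the peak of -dF/dT, and a linear Van't Hoff regression of 1/Tm against ln(CT/4) gives enthalpy, entropy and extrapolated free energy, with no salt adjustment and errors given as fit standard deviations. The free energy extrapolation is to 50°C.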

[2] = duplex melting temperature (HRM, EvaGreen); higher = more stable duplex
How it was run: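 After 1:1 annealing at 25 μM, complementary phosphodiester or phosphorothioate strands (Rp/Sp mixtures) were brought to 1–20 μM duplex in NNE buffer (500 mM NaCl, pH 7.0) with 1× EvaGreen and heated at 0.1°C/s from 37°C to 97°C while a LightCycler96 monitored fluorescence (470/514 nm). The melting temperature is the negative dF/dT peak reported by the instrument software, averaged over replicates with a clear peak.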

[3] = duplex formation enthalpy ΔH (Van't Hoff fit of HRM Tm); higher = less exothermic duplex formation; settings: temperature for dG: 50 °C, NaCl: 500 mM (unadjusted)
How it was run: as §1

[4] = duplex formation entropy ΔS (Van't Hoff fit of HRM Tm); higher = smaller entropy loss on duplex formation; settings: temperature for dG: 50 °C, NaCl: 500 mM (unadjusted)
How it was run: as §1

[5] = backbone: PO-PO (both strands phosphodiester DNA)
[6] = backbone: PS-PO (listed strand fully phosphorothioate, complement phosphodiester)
[7] = backbone: PS-PS (both strands fully phosphorothioate)
[8] = duplex concentration 1 µM, backbone: PS-PO (listed strand fully phosphorothioate, complement phosphodiester)
[9] = duplex concentration 1 µM, backbone: PS-PS (both strands fully phosphorothioate)
[10] = duplex concentration 2.5 µM, backbone: PO-PO (both strands phosphodiester DNA)
[11] = duplex concentration 2.5 µM, backbone: PS-PO (listed strand fully phosphorothioate, complement phosphodiester)
[12] = duplex concentration 2.5 µM, backbone: PS-PS (both strands fully phosphorothioate)
[13] = duplex concentration 5 µM, backbone: PO-PO (both strands phosphodiester DNA)
[14] = duplex concentration 5 µM, backbone: PS-PO (listed strand fully phosphorothioate, complement phosphodiester)
[15] = duplex concentration 5 µM, backbone: PS-PS (both strands fully phosphorothioate)
[16] = duplex concentration 7.5 µM, backbone: PO-PO (both strands phosphodiester DNA)
[17] = duplex concentration 7.5 µM, backbone: PS-PO (listed strand fully phosphorothioate, complement phosphodiester)
[18] = duplex concentration 7.5 µM, backbone: PS-PS (both strands fully phosphorothioate)
[19] = duplex concentration 10 µM, backbone: PO-PO (both strands phosphodiester DNA)
[20] = duplex concentration 10 µM, backbone: PS-PO (listed strand fully phosphorothioate, complement phosphodiester)
[21] = duplex concentration 10 µM, backbone: PS-PS (both strands fully phosphorothioate)
[22] = duplex concentration 15 µM, backbone: PO-PO (both strands phosphodiester DNA)
[23] = duplex concentration 15 µM, backbone: PS-PO (listed strand fully phosphorothioate, complement phosphodiester)
[24] = duplex concentration 15 µM, backbone: PS-PS (both strands fully phosphorothioate)
[25] = duplex concentration 20 µM, backbone: PO-PO (both strands phosphodiester DNA)
[26] = duplex concentration 20 µM, backbone: PS-PO (listed strand fully phosphorothioate, complement phosphodiester)
[27] = duplex concentration 20 µM, backbone: PS-PS (both strands fully phosphorothioate)
[28] = duplex concentration 1 µM, backbone: PO-PO (both strands phosphodiester DNA)

| Sequence | duplex formation free energy ΔG50 [1, 5] | duplex formation free energy ΔG50 [1, 6] | duplex formation free energy ΔG50 [1, 7] | duplex melting temperature [2, 8] | duplex melting temperature [2, 9] | duplex melting temperature [2, 10] | duplex melting temperature [2, 11] | duplex melting temperature [2, 12] | duplex melting temperature [2, 13] | duplex melting temperature [2, 14] | duplex melting temperature [2, 15] | duplex melting temperature [2, 16] | duplex melting temperature [2, 17] | duplex melting temperature [2, 18] | duplex melting temperature [2, 19] | duplex melting temperature [2, 20] | duplex melting temperature [2, 21] | duplex melting temperature [2, 22] | duplex melting temperature [2, 23] | duplex melting temperature [2, 24] | duplex melting temperature [2, 25] | duplex melting temperature [2, 26] | duplex melting temperature [2, 27] | duplex formation enthalpy ΔH [3, 5] | duplex formation enthalpy ΔH [3, 6] | duplex formation enthalpy ΔH [3, 7] | duplex formation entropy ΔS [4, 5] | duplex formation entropy ΔS [4, 6] | duplex formation entropy ΔS [4, 7] | duplex melting temperature [2, 28] |
| --- | --- | --- | --- | --- | --- | --- | --- | --- | --- | --- | --- | --- | --- | --- | --- | --- | --- | --- | --- | --- | --- | --- | --- | --- | --- | --- | --- | --- | --- | --- |
| AGCACGGTGGTACAACA | -12.8 ± 0.17 kcal/mol | -12.23 ± 0.093 kcal/mol | -9.892 ± 0.075 kcal/mol | 60.27 ± 0.38 °C | 50.09 ± 0.18 °C | 67.58 ± 0.38 °C | 63.2 ± 0.2 °C | 53.82 ± 0.069 °C | 69.83 ± 0.28 °C | 65.28 ± 0.1 °C | 56.17 ± 0.085 °C | 71.17 ± 0.15 °C | 66.25 ± 0.082 °C | 57.1 ± 0.12 °C | 72.2 ± 0.18 °C | 67.06 ± 0.081 °C | 57.92 ± 0.08 °C | 73.4 ± 0.13 °C | 68.18 ± 0.11 °C | 59.07 ± 0.11 °C | 74.39 ± 0.17 °C | 69.05 ± 0.15 °C | 59.74 ± 0.13 °C | -71.3 ± 2.6 kcal/mol | -78.6 ± 2 kcal/mol | -67.6 ± 3.5 kcal/mol | -181 ± 7.5 cal/mol/K | -205 ± 5.8 cal/mol/K | -179 ± 11 cal/mol/K | – |
| AATGTCGAACAGCAATT | -12.5 ± 0.15 kcal/mol | -11.23 ± 0.064 kcal/mol | -9.264 ± 0.033 kcal/mol | 56.56 ± 0.11 °C | 47.17 ± 0.34 °C | 65.17 ± 0.47 °C | 59.08 ± 0.19 °C | 50.7 ± 0.2 °C | 67.17 ± 0.36 °C | 61.32 ± 0.12 °C | 53 ± 0.2 °C | 68.45 ± 0.29 °C | 62.61 ± 0.066 °C | 54.22 ± 0.19 °C | 69.46 ± 0.13 °C | 63.46 ± 0.16 °C | 54.99 ± 0.23 °C | 70.74 ± 0.12 °C | 64.55 ± 0.19 °C | 56.34 ± 0.18 °C | 71.86 ± 0.12 °C | 65.45 ± 0.21 °C | 57.25 ± 0.45 °C | -74.4 ± 2.7 kcal/mol | -74.3 ± 1.7 kcal/mol | -63.7 ± 2.3 kcal/mol | -192 ± 8 cal/mol/K | -195 ± 5.2 cal/mol/K | -169 ± 7 cal/mol/K | 63.06 ± 0.22 °C |
| CTGTAAGGCGATATGTT | -12.5 ± 0.13 kcal/mol | -10.76 ± 0.077 kcal/mol | -8.999 ± 0.015 kcal/mol | 54.19 ± 0.32 °C | 46.56 ± 0.46 °C | 64 ± 0.26 °C | 57.45 ± 0.17 °C | 49.35 ± 0.22 °C | 66.38 ± 0.2 °C | 59.646 ± 0.025 °C | 51.33 ± 0.25 °C | 67.39 ± 0.14 °C | 60.55 ± 0.14 °C | 52.31 ± 0.059 °C | 68.42 ± 0.14 °C | 61.364 ± 0.05 °C | 53.15 ± 0.1 °C | 69.61 ± 0.1 °C | 62.62 ± 0.11 °C | 54.29 ± 0.068 °C | 70.55 ± 0.11 °C | 63.366 ± 0.049 °C | 55.12 ± 0.067 °C | -77.7 ± 2.5 kcal/mol | -72.7 ± 2.5 kcal/mol | -73.8 ± 1.5 kcal/mol | -202 ± 7.4 cal/mol/K | -192 ± 7.4 cal/mol/K | -201 ± 4.6 cal/mol/K | 62.12 ± 0.3 °C |
| TTGAAAACCCATGTGC | -11.8 ± 0.082 kcal/mol | -10.62 ± 0.078 kcal/mol | -8.581 ± 0.024 kcal/mol | – | 44.39 ± 0.2 °C | 62.8 ± 0.81 °C | 56.79 ± 0.24 °C | 47.54 ± 0.18 °C | 64.91 ± 0.47 °C | 59.35 ± 0.12 °C | 49.47 ± 0.39 °C | 66.29 ± 0.13 °C | 60.57 ± 0.15 °C | 50.5 ± 0.34 °C | 67.33 ± 0.16 °C | 61.45 ± 0.1 °C | 51.45 ± 0.23 °C | 68.7 ± 0.13 °C | 62.67 ± 0.086 °C | 52.45 ± 0.36 °C | 69.66 ± 0.17 °C | 63.58 ± 0.29 °C | 53.33 ± 0.26 °C | -69.1 ± 1.7 kcal/mol | -68.7 ± 2.4 kcal/mol | -69.7 ± 2.8 kcal/mol | -177 ± 5 cal/mol/K | -180 ± 7.1 cal/mol/K | -189 ± 8.7 cal/mol/K | 60.23 ± 0.095 °C |
| ACTCGCTCTACCTTAAT | -11.8 ± 0.16 kcal/mol | -10.27 ± 0.06 kcal/mol | -9.165 ± 0.027 kcal/mol | – | 46.7 ± 0.53 °C | 62.88 ± 0.38 °C | 55.24 ± 0.45 °C | 50.2 ± 0.22 °C | 65.23 ± 0.53 °C | 57.69 ± 0.21 °C | 52.44 ± 0.085 °C | 66.57 ± 0.5 °C | 59.03 ± 0.074 °C | 53.72 ± 0.14 °C | 67.63 ± 0.18 °C | 59.946 ± 0.043 °C | 54.68 ± 0.21 °C | 69.17 ± 0.14 °C | 61.16 ± 0.2 °C | 55.75 ± 0.19 °C | 70.4 ± 0.34 °C | 62.06 ± 0.28 °C | 56.8 ± 0.2 °C | -68.3 ± 3.3 kcal/mol | -67 ± 2.1 kcal/mol | -63.1 ± 2 kcal/mol | -175 ± 9.7 cal/mol/K | -176 ± 6.4 cal/mol/K | -167 ± 6.3 cal/mol/K | 60.43 ± 0.52 °C |
| CGGTGCTTTTGGTAGC | -13 ± 0.28 kcal/mol | -11.01 ± 0.054 kcal/mol | -9.497 ± 0.038 kcal/mol | 55.5 °C | 48.49 ± 0.47 °C | 66.24 ± 0.63 °C | 57.98 ± 0.26 °C | 51.59 ± 0.36 °C | 68.2 ± 0.57 °C | 60.12 ± 0.16 °C | 53.89 ± 0.15 °C | 69.42 ± 0.55 °C | 61.35 ± 0.16 °C | 55.11 ± 0.14 °C | 70.49 ± 0.27 °C | 62.11 ± 0.17 °C | 55.86 ± 0.081 °C | 71.77 ± 0.14 °C | 63.256 ± 0.027 °C | 56.93 ± 0.08 °C | 72.89 ± 0.21 °C | 64.025 ± 0.015 °C | 57.7 ± 0.2 °C | -78.9 ± 5 kcal/mol | -75.7 ± 1.6 kcal/mol | -69.1 ± 2.4 kcal/mol | -204 ± 15 cal/mol/K | -200 ± 4.7 cal/mol/K | -184 ± 7.3 cal/mol/K | 64.53 ± 0.35 °C |

Reference: the supplement of paper PMC9116672
